Where “and” joins values, the source holds several entries; their conditions need not be identical. Equal entries are not always repeated.
Assay: Antibody concentration in brain of hAPP transgenic mice
Type: in vivo, mouse
Description: Briefly, 5-month old human APP-expressing mice were treated with 30 mg/kg or 100 mg/kg YW412.8.31 antibody or vehicle by intra-peritoneal injection every four days for a total of three doses (i.e., at days 1, 5, and 9). Animals were euthanized two hours post the final dose. Serum, plasma, and brains were harvested and processed. Plasma, cortex and hippocampus were analyzed for levels of soluble Aβ1-40 and Aβ1-42 using an Amyloid beta (Aβ) ELISA test kit per manufacture's instructions (The Genetics Company). Pharmacokinetic analysis was performed on serum and brain homogenates.
Similar experiments were also performed in which YW412.8.31 anti-BACE1 antibody was delivered systemically or directly into hAPP transgenic mice brains by continuous ICV infusion. For ICV delivery, antibody was delivered continuously for 7 days via an Alzet osmotic minipump (model 2001) implanted unilaterally. The amount of YW412.8.31 antibody delivered was 0.041 mg/day (low dose) or 0.41 mg/day (high dose); 0.33 mg/day Control IgG was delivered to the control group. At euthanasia, plasma, cortex, and hippocampus were harvested and analyzed for levels of soluble Aβ1-40 and Aβ1-42 by ELISA (The Genetics Company) following manufacturer's instructions.
Total anti-BACE1 antibody concentrations in mouse serum and brain samples were measured as follows. Antibody concentrations in mouse serum and brain samples were measured using an enzyme-linked immunosorbent assay (ELISA). NUNC 384 well Maxisorp immunoplates (Neptune, N.J.) were coated with F(ab′)2 fragment of donkey anti-human IgG, Fc fragment specific polyclonal antibody (Jackson ImmunoResearch, West Grove, Pa.) overnight at 4° C. Plates were blocked with phosphate-buffered saline (PBS) containing 0.5% bovine serum albumin (BSA) for 1 hour at room temperature the next day. Each antibody (Control IgG and anti-BACE1) was used as a standard to quantify the respective antibody concentrations. After washing plates with PBS containing 0.05% Tween 20 using a microplate washer (Bio-Tek Instruments, Inc., Winooski, Vt.), standards and samples diluted in PBS containing 0.5% BSA, 0.35 M NaCl, 0.25% CHAPS, 5 mM EDTA, 0.05% Tween 20 and 15 ppm Proclin were incubated on plates for 2 hours at room temperature with mild agitation. Bound antibody was detected with horseradish peroxidase conjugated F(ab′)2 goat anti-human IgG, Fc specific polyclonal antibody (Jackson ImmunoResearch). Finally, plates were developed using the substrate 3,3′,5,5′-tetramethyl benzidine (TMB) (KPL, Inc., Gaithersburg, Md.). Absorbance was measured at a wavelength of 450 nm with a reference of 630 nm on a Multiskan Ascent reader (Thermo Scientific, Hudson, N.H.). Concentrations were determined from the standard curve using a four-parameter non-linear regression program.

B1: YW412.8.31: affinity matured form of YW412.8 anti-BACE1 antibody (antibody, V domains shown)
VH: EVQLVESGGGLVQPGGSLRLSCAASGFTFLGYGIHWVRQAPGKGLEWVGWISPAGGSTDYADSVKGRFTISADTSKNTAYLQMNSLRAEDTAVYYCARGPFSPWVMDYWGQGTLVTVSS
VL: DIQMTQSPSSLSASVGDRVTITCRASQDVSTAVAWYQQKPGKAPKLLIYSASFLYSGVPSRFSGSGSGTDFTLTISSLQPEDFATYYCQQFPTYLPTFGQGTKVEIK
ANTIBODY CONCENTRATION IN BRAIN (systemic delivery 30 mg/kg): 0.7 μG/G | antibody concentration in brain (systemic delivery 30 mg/kg): 4.8 ± 3.6 nM and 4.8 nM | ANTIBODY CONCENTRATION IN BRAIN (systemic delivery 100 mg/kg): 2.1 μG/G | antibody concentration in brain (systemic delivery 100 mg/kg): 14.0 ± 9.3 nM and 14 nM

Reference: patent publication US9879094B2, “Nucleic acid molecules encoding for BACE1 antibodies” (Genentech, Inc., priority 2010, dated 2018)
